Experimental findings from PMC10397247 are described below.

Assay [1] concerns the target T1, O7-bS.
T1 chain: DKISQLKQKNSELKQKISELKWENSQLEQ
As to the kind of experiment: two-hybrid library CCNG1.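 Also: natural log of median RNA to DNA barcode read ratio; higher means stronger binding.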

The target of assay [2] is T2, O9-bS.
T2 chain: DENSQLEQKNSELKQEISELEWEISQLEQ
As to the kind of experiment: two-hybrid library CCNG1.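 Also: natural log of median RNA to DNA barcode read ratio; higher means stronger binding.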

Assay [3] deals with T3, O8-bS.
T3 chain: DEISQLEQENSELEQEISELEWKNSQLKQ
As to the kind of experiment: two-hybrid library CCNG1.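 Also: natural log of median RNA to DNA barcode read ratio; higher means stronger binding.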

Assay [4] deals with T4, O9-bP.
T4 chain: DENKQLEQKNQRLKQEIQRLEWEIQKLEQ
Briefly: two-hybrid library CCNG1.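 Also: natural log of median RNA to DNA barcode read ratio; higher means stronger binding.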

The target of assay [5] is T5, O8-bP.
T5 chain: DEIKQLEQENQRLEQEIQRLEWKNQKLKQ
Briefly: two-hybrid library CCNG1.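 Also: natural log of median RNA to DNA barcode read ratio; higher means stronger binding.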

Assay [6] has as its target T6, O7-bP.
T6 chain: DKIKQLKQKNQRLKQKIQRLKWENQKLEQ
Briefly: two-hybrid library CCNG1.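 Also: natural log of median RNA to DNA barcode read ratio; higher means stronger binding.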

The target in assay [7] is T7, 4H58-AA.
T7 chain: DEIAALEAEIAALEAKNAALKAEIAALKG
Briefly: two-hybrid library CCmax. The following applies: mean of both orientations.

In assay [8] the target is T8, 4H3705-AA.
T8 chain: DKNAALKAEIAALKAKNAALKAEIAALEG
As to the kind of experiment: two-hybrid library CCmax.

Assay [9] deals with T9, 4H3782-AA.
T9 chain: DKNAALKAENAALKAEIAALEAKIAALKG
Briefly: two-hybrid library CCmax. The conditions noted are these: mean of both orientations.

In assay [10] the target is T10, 4H465-AA.
T10 chain: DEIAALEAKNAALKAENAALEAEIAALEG
Briefly: two-hybrid library CCmax. The conditions noted are these: mean of both orientations.

Assay [11] deals with GCN2_T. Briefly: two-hybrid library CCmax.
For assay [12], the target named is T11, 4H895-AA.
T11 chain: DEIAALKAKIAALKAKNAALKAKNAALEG
As to the kind of experiment: two-hybrid library CCmax. The conditions noted are these: mean of both orientations.

Assay [13] deals with 4H_GCN4. Briefly: two-hybrid library CCmax. The conditions noted are these: mean of both orientations.
Chain of 4H_GCN4 (chain, as listed by the source): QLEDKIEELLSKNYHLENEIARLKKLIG
Assay [14] addresses T12, 4H535-AA.
T12 chain: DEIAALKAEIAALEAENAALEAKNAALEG
As to the kind of experiment: two-hybrid library CCmax. The conditions noted are these: mean of both orientations.

For assay [15], the target named is T13, 4H_BCR.
T13 chain: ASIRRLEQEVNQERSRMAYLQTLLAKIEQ
As to the kind of experiment: two-hybrid library CCmax. The following applies: mean of both orientations.

In assay [16] the target is T14, 4H486-AA.
T14 chain: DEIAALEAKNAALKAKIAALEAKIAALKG
As to the kind of experiment: two-hybrid library CCmax. The following applies: mean of both orientations.

Assay [17] concerns the target T15, 4H_APH.
T15 chain: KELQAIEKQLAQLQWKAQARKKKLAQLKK
As to the kind of experiment: two-hybrid library CCmax. The following applies: mean of both orientations.

Assay [18] addresses T16, 4H346-bA.
T16 chain: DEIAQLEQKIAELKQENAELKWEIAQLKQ
Briefly: two-hybrid library CCNG1.

Assay [19] has as its target T17, 4H3926-bA.
T17 chain: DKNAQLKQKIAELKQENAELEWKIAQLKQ
Briefly: two-hybrid library CCNG1.

The target of assay [20] is T18, 4H754-bA.
T18 chain: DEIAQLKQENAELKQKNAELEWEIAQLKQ
Briefly: two-hybrid library CCNG1.

Assay [21] deals with T19, 4H4073-bA.
T19 chain: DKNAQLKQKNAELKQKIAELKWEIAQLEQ
As to the kind of experiment: two-hybrid library CCNG1.

The target of assay [22] is T20, 4H780-bA.
T20 chain: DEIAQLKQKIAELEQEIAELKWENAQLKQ
Briefly: two-hybrid library CCNG1.

Assay [23] concerns the target T21, 4H918-bA.
T21 chain: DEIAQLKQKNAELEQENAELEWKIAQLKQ
Briefly: two-hybrid library CCNG1.

In assay [24] the target is T22, 4H457-bA.
T22 chain: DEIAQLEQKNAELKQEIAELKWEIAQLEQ
As to the kind of experiment: two-hybrid library CCNG1.

The target in assay [25] is T23, 4H953-bA.
T23 chain: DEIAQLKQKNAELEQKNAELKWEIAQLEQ
Briefly: two-hybrid library CCNG1.

Assay [26] addresses T24, 4H968-bA.
T24 chain: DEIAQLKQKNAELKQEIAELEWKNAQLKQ
As to the kind of experiment: two-hybrid library CCNG1.

The target in assay [27] is T25, 4H683-bA.
T25 chain: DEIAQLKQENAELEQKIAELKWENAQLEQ
As to the kind of experiment: two-hybrid library CCNG1.

In assay [28] the target is T26, 4H575-bA.
T26 chain: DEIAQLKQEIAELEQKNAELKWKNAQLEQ
Briefly: two-hybrid library CCNG1.

Assay [29] addresses T27, 4H797-bA.
T27 chain: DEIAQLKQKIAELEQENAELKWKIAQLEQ
As to the kind of experiment: two-hybrid library CCNG1.

Assay [30] addresses T28, 4H855-bA.
T28 chain: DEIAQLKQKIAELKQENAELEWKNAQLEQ
Briefly: two-hybrid library CCNG1.

B1: O7-bS (peptide)
chain: DKISQLKQKNSELKQKISELKWENSQLEQ
As for B1, the interaction score in assay [1] was -1.01; in assay [2], -1.07; in assay [3], 0.93.

B2: O7-bP (peptide)
chain: DKIKQLKQKNQRLKQKIQRLKWENQKLEQ
With B2, the interaction score in assay [4] was -1.09; in assay [5] it was 1.3; in [6], -1.43.

B3: 4H3705-AA (peptide)
chain: DKNAALKAEIAALKAKNAALKAEIAALEG
For the molecule B3, the interaction score in assay [7] was 0.517; in [8], -1.2; in assay [9] it was -1.26; in assay [10] it was -1.21; in [11], -1.92; in [12], -1.78. The interaction score was -1.4 in assay [13]; -0.26 in [14]; -1.43 in assay [15]; -1.65 in assay [16]; -2.68 in assay [17].

B4: 4H346-bA (peptide)
chain: DEIAQLEQKIAELKQENAELKWEIAQLKQ
For B4, the interaction score is 1.48 in assay [18]; 1.57 in assay [19]; -0.388 in assay [20]; -0.388 in assay [21]; -0.692 in assay [22]; -0.428 in assay [23]. The interaction score in [24] is -0.833; in assay [25], -1.6; in [26] it was -0.648; in assay [27] it was 0.357; in assay [28], -0.114; in assay [29], -0.562. The molecule further yielded an interaction score in assay [30] of 0.0345.
